Legend:
[1] = target: the molecule itself; test: SEC; gel filtration chromatography of the purified proteins; single peaks; data not shown
SsbB (native) [2] = target: T1, SsbB (native) (Neisseria gonorrhoeae MS11, UniProt Q5EP75 1-143); test: EMSA; SBA buffer; (SsbB)4 concentration; one and two tetramer complexes; EMSA: SBA buffer (10 mM NaOH, 2 mM EDTA, boric acid to pH 7.5), optional 10 mM MgCl2 and/or NaCl up to 500 mM, 4 C 15 min; AFM: 20 mM Tris pH 7.5, 150 mM NaCl; settings: protein: recombinant; tags: none; chain copies: 4; label: 5' 32P
T1 sequence: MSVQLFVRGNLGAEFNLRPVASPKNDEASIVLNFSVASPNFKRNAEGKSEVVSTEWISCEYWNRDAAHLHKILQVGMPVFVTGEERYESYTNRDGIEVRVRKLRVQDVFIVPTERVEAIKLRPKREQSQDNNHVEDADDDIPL

SsbB (native) [3] = target: T1, SsbB (native); test: EMSA; stoichiometric at 8 nM DNA; 1 tetramer per oligo; Cy3 raises affinity at least 10-fold; EMSA: SBA buffer (10 mM NaOH, 2 mM EDTA, boric acid to pH 7.5), optional 10 mM MgCl2 and/or NaCl up to 500 mM, 4 C 15 min; AFM: 20 mM Tris pH 7.5, 150 mM NaCl; settings: protein: recombinant; tags: none; chain copies: 4; label: 5' Cy3
SsbB (native) [4] = target: T1, SsbB (native); test: tryptophan fluorescence titration; biphasic; 1 oligo per tetramer high affinity, second much weaker; EMSA: SBA buffer (10 mM NaOH, 2 mM EDTA, boric acid to pH 7.5), optional 10 mM MgCl2 and/or NaCl up to 500 mM, 4 C 15 min; AFM: 20 mM Tris pH 7.5, 150 mM NaCl; settings: protein: recombinant; tags: none; chain copies: 4
SsbB (native) [5] = target: T1, SsbB (native); test: EMSA (Coomassie); 1 uM tetramer, 5 uM oligo; minimal frame for one tetramer; EMSA: SBA buffer (10 mM NaOH, 2 mM EDTA, boric acid to pH 7.5), optional 10 mM MgCl2 and/or NaCl up to 500 mM, 4 C 15 min; AFM: 20 mM Tris pH 7.5, 150 mM NaCl; settings: protein: recombinant; tags: none; chain copies: 4
SsbB (native) [6] = target: T1, SsbB (native); test: EMSA (Coomassie); 1 uM tetramer, 0.25 uM oligo; minimal frame for two tetramers; EMSA: SBA buffer (10 mM NaOH, 2 mM EDTA, boric acid to pH 7.5), optional 10 mM MgCl2 and/or NaCl up to 500 mM, 4 C 15 min; AFM: 20 mM Tris pH 7.5, 150 mM NaCl; settings: protein: recombinant; tags: none; chain copies: 4

B1: native SsbB (single stranded DNA binding protein SsbB encoded in the Gonococcal Genetic Island of Neisseria gonorrhoeae) (natural protein, UniProt Q5EP75 1-143, looked up)
chain: MSVQLFVRGNLGAEFNLRPVASPKNDEASIVLNFSVASPNFKRNAEGKSEVVSTEWISCEYWNRDAAHLHKILQVGMPVFVTGEERYESYTNRDGIEVRVRKLRVQDVFIVPTERVEAIKLRPKREQSQDNNHVEDADDDIPL
notes: expressed as the native (untagged) protein; also called WT; GGI SSB; source: E. coli C43 (DE3), purified (Hi-Trap Q, DNA-cellulose, Superdex SD200)
With B1 the “stoichiometry N” value [1] was 4.

B2: His-tagged SsbB (natural protein, Neisseria gonorrhoeae, UniProt Q5EP75 1-143, looked up)
chain: MSVQLFVRGNLGAEFNLRPVASPKNDEASIVLNFSVASPNFKRNAEGKSEVVSTEWISCEYWNRDAAHLHKILQVGMPVFVTGEERYESYTNRDGIEVRVRKLRVQDVFIVPTERVEAIKLRPKREQSQDNNHVEDADDDIPL
notes: also called N- His- tagged SsbB; source: E. coli C43 (DE3), purified (Hi-Trap Chelating Ni, Hi-Trap Q, Superdex SD200); not shown: His tag, N-terminal, kept
With B2 the “stoichiometry N” value [1] was 4.

B3: OneSTrEP-tagged SsbB (natural protein, Neisseria gonorrhoeae, UniProt Q5EP75 1-143, looked up)
chain: MSVQLFVRGNLGAEFNLRPVASPKNDEASIVLNFSVASPNFKRNAEGKSEVVSTEWISCEYWNRDAAHLHKILQVGMPVFVTGEERYESYTNRDGIEVRVRKLRVQDVFIVPTERVEAIKLRPKREQSQDNNHVEDADDDIPL
notes: source: E. coli C43 (DE3), purified (Strep-tactin Sepharose, Hi-Trap Q, Superdex SD200); not shown: OneSTrEP tag, N-terminal, kept
With B3 the “stoichiometry N” value [1] was 4.

B4: 32P-dT75 (ssDNA)
DNA: TTTTTTTTTTTTTTTTTTTTTTTTTTTTTTTTTTTTTTTTTTTTTTTTTTTTTTTTTTTTTTTTTTTTTTTTTTT
B4 showed a Kd (SsbB (native) [2]) of ~100 nM.

TTTTTTTTTTTTTTTTTTTTTTTTTTTTTTTTTTT (ssDNA) [Cy3-dT35]: binds (SsbB (native) [3]).

TTTTTTTTTTTTTTTTTTTTTTTTT (ssDNA) [dT25]: binds (SsbB (native) [4]).

TTTTTTTTTTTTTTTTTTTTTTTTTTTTTTTTTTT (ssDNA) [dT35]: binds (SsbB (native) [4]).

TTTTTTTTTTTTTTTTTTTTTTTTTTTTTTTTTTTTTTTTTTTTT (ssDNA) [dT45]: binds (SsbB (native) [4]).

TTTTTTTTTTTTTTT (ssDNA) [dT15]: binds (SsbB (native) [5]).

B5: dT70 (ssDNA)
DNA: TTTTTTTTTTTTTTTTTTTTTTTTTTTTTTTTTTTTTTTTTTTTTTTTTTTTTTTTTTTTTTTTTTTTTT
B5: binds (SsbB (native) [6]).

Source: PMC3334931, “Characterization of the Single Stranded DNA Binding Protein SsbB Encoded in the Gonoccocal Genetic Island” (PLoS ONE, 2012)
